Measurements: PMC3994186 (Oncogene, 2013)

T1: His-tagged RAD51C (human, UniProt O43502 1-376)
T1 sequence: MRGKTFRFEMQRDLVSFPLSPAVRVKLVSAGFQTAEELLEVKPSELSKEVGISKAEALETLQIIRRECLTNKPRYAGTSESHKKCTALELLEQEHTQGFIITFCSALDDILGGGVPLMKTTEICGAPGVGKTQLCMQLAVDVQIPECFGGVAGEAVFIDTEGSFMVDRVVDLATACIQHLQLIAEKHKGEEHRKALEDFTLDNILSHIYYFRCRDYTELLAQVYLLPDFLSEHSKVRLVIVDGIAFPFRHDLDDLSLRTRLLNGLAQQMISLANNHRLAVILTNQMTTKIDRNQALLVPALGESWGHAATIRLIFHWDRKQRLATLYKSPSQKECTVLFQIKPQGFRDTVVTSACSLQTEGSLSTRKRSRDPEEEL


Molecular target: T1, His-tagged RAD51C
Assay: pull-down

Row | binding result | Binder
1 | binds | MBP fused to the WD40 domain of PALB2 (amino acids 859-1186), wild type (domain or fragment) SELKNPSGSCSVDVSAMFWERAGCKEPCIITACEDVVSLWKALDAWQWEKLYTWHFAEVPVLQIVPVPDVYNLVCVALGNLEIREIRALFCSSDDESEKQVLLKSGNIKAVLGLTKRRLVSSSGTLSDQQVEVMTFAEDGGGKENQFLMPPEETILTFAEVQGMQEALLGTTIMNNIVIWNLKTGQLLKKMHIDDSYQASVCHKAYSEMGLLFIVLSHPCAKESESLRSPVFQLIVINPKTTLSVGVMLYCLPPGQAGRFLEGDVKDHCAAAILTSGTIAIWDLLLGQCTALLPPVSDQHWSFVKWSGTDSHLLAGQKDGNIFVYHYS
2 | binds | MBP-PALB2 WD40 domain L939W (domain or fragment) SELKNPSGSCSVDVSAMFWERAGCKEPCIITACEDVVSLWKALDAWQWEKLYTWHFAEVPVLQIVPVPDVYNLVCVALGNWEIREIRALFCSSDDESEKQVLLKSGNIKAVLGLTKRRLVSSSGTLSDQQVEVMTFAEDGGGKENQFLMPPEETILTFAEVQGMQEALLGTTIMNNIVIWNLKTGQLLKKMHIDDSYQASVCHKAYSEMGLLFIVLSHPCAKESESLRSPVFQLIVINPKTTLSVGVMLYCLPPGQAGRFLEGDVKDHCAAAILTSGTIAIWDLLLGQCTALLPPVSDQHWSFVKWSGTDSHLLAGQKDGNIFVYHYS
3 | binds | MBP-PALB2 WD40 domain T1030I (domain or fragment) SELKNPSGSCSVDVSAMFWERAGCKEPCIITACEDVVSLWKALDAWQWEKLYTWHFAEVPVLQIVPVPDVYNLVCVALGNLEIREIRALFCSSDDESEKQVLLKSGNIKAVLGLTKRRLVSSSGTLSDQQVEVMTFAEDGGGKENQFLMPPEETILTFAEVQGMQEALLGTIIMNNIVIWNLKTGQLLKKMHIDDSYQASVCHKAYSEMGLLFIVLSHPCAKESESLRSPVFQLIVINPKTTLSVGVMLYCLPPGQAGRFLEGDVKDHCAAAILTSGTIAIWDLLLGQCTALLPPVSDQHWSFVKWSGTDSHLLAGQKDGNIFVYHYS
